Source: the nanobody polyreactivity screen of Harvey et al. (2022)

Assay: yeast display, Sf9 membrane polyspecificity reagent, FACS + sequencing; frameworks hold sequencing errors
Method in brief: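 In a synthetic yeast display library (Saccharomyces cerevisiae BJ5465), nanobody expression was induced with galactose for 36–48 hours. FACS gates were set low and high (top ~1%) using anti-HA fluorescence for expression and streptavidin fluorescence for binding of the Sf9 membrane reagent. Each polyreactivity label is drawn from the gate of origin.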

Row | Sequence | polyreactivity (PSR sort gate)
1 | QVQLVESGGGLVQAGGSLRLSCAGSGSTFRSNAMGWYRQAPGKERELVAAISQRGGSTYYADSVKGRFTISRDNAKNTVYLQMNSLKPEDTAVYYCAARLYRGWRPFYYWGQGTQVSVSS | high polyreactivity
2 | QVQLVESGGGLVQAGGSLRLSCAGYGSIFWWYPMVWYRQAPGKERELVASISWSGTSTYYADSVKGRFTISRDNAKNTVYLQMNSLKPEDTAVYYCNADVYWPGTPYTHDYWGQGTQVTVSS | low polyreactivity
3 | QVQLVESGGGLVQAGGSLRLSCAPSGFIFRLNGMGWYIQAPGKERELVATIDSGSSTNYADSVKGRFTISRDNAKNTVYLQMNSLKPEDTAVYYCAAVVISYYTHGDYDYWGQGTQVTVSS | low polyreactivity
4 | QVQLVESGGGLVQAGGSLRLSCAPSGFIYSKYVIGWNRPAPGKERELVAAITRSGSSTYYADSVKGRFTISRDNAKNTDYLQMNSLKPEDTAVYYCAADGGYYDDDYWGQGTQVTVSS | high polyreactivity
5 | QVQLVESGGGLVQAGGSLRLSCAPSGGTFYANDMGWYRQAPGKERELVATISKSGGSTYYAESVKRPFTISRDNAKNTVYCQMNSLKPEVTAVYYCAARTTYLYGMYYWGQGTQVTVSS | low polyreactivity
6 | QVQLVESGGGLVQAGGSLRLSCAPSGIIFYYYAMGWYRQAPGKERELVAAITGTGSRTYYADSVKGRFTISRDNAKNTVYLQMNSLKPEDTAVYYCNARSFATGSKVPARGYWGQGTQVTVSS | high polyreactivity
7 | QVQLVESGGGLVQAGGSLRLSCAPSGITFLHYAMGWYRQAPGKERELVAAITRGGITYYADSVKGRFTISRDNAKNSVYLLMNSLKPEDTAVYYCNALGFGSNYDYWGQGTQVTVSS | high polyreactivity
8 | QVQLVESGGGLVQAGGSLRLSCAPSGITFVKNVMGWYRQAPGKEREFVAAISTIGARTYYADSVKGRFTISRDNAKNTVYLQMNSLIPEDTAVYYCNAYKSGYGQEYDYWGQGTQVTVSS | high polyreactivity
9 | QVQLVESGGGLVQAGGSLRLSCAPSGLTFSNYAMGWYRQAPCKERELVAGISSSGGTTYYADSVKGRFTISRDNAKNTVFLQMNSLKPEDTAVYYCATRRHYGSFWYDYWGQGTQVTVSS | high polyreactivity
10 | QVQLVESGGGLVQAGGSLRLSCAPSGNIFGYYVMAWYRQAPGTERELVAAITWSAGTTNYADSVKGRFTISRDNAKNTVYLQMNSLKPEDTAVYYFAVTWWYQDYDLTWYLYDYWGQGTEVTVSS | low polyreactivity
11 | QVQLVESGGGLVQAGGSLRLSCAPSGRIFGTYAMGWYRQAPGKERELVASIRSRGGRTYYADSVKGRFTISRDNAKNTVYLQMNSLKPEDTAVYYCAADVGVYYYSFYYWGQGTQVTVSS | high polyreactivity
12 | QVQLVESGGGLVQAGGSLRLSCAPSGRIFRYYAMGWYRQAPGKERELVATIRSGGSTNYADSVKGRFTISRDNEKNTVYLQMNSLKPEDTAVYYCAATGGILSTYDYWGQVTQVTVSS | high polyreactivity
13 | QVQLVESGGGLVQAGGSLRLSCAPSGRIFSYNTMGWYRQAAGKERELVAAISSSGGSTYYADSVKGRFTISRDNAKNTFYLQMNSLKPEDTALYYCNAVGRFSTRREYWGQGTQVTVSS | high polyreactivity
14 | QVQLVESGGGLVQAGGSLRLSCAPSGRIFYPYAMGWYRQAPGKERELVAAISSRGDSTYYADSVKGRFTISRDNAKNTVYLQMNSLKPEDSAVYYCAAVYGSFPTRLYYWGQGTQVTVSS | high polyreactivity
15 | QVQLVESGGGLVQAGGSLRLSCAPSGRNFWYYGMVWYRPAPGRERELVAAISRSGGRTSYADSVKGRFTISRDNAKNTVYLQMNSLKPEDTAVYYCATDGYYRYGYWGQGTQVTVSS | high polyreactivity
16 | QVQLVESGGGLVQAGGSLRLSCAPSGRNYDRNAMGWYRQAPGKERELVARIDPGDDTNYADSVKGRFTISRDNAKNTVYLQMNSRKPEDTAVYDCASDPDYFLYRTAYYEFDYWGQGTQVTVSS | low polyreactivity
17 | QVQLVESGGGLVQAGGSLRLSCAPSGRTFRTNTMGWYRQAPGKESELVAAINWRGGSTYYADSVKGRFTISRDNAKNTVYLQMNSLKPEDTAVYYCNAQQGRYKYSGRYDYWGQGTQVTVSS | low polyreactivity
18 | QVQLVESGGGLVQAGGSLRLSCAPSGRTFSENAMGWYRQAPGKERELVAAISGSGGRTYYADSVMGRFTISRDNAKNSVFLQMNSLKPEVTAVYYCAKVTRYGSTYDYWGQGTQVTVSS | high polyreactivity
19 | QVQLVESGGGLVQAGGSLRLSCAPSGSIFGVYAMGWYRQAPGKERELVAAISSRGSSTYYADSVKGRFTISRDNAKNTVYLQMNSLKPEDTAVYYCAARPGIRSYPPGYGYWGQGTQVTVSS | high polyreactivity
20 | QVQLVESGGGLVQAGGSLRLSCAPSGSIFNYNIGSYRQAPVKERELVAAVSTNYADSVKGRFTISRDNAKNTVYIQMNSLKPADSAVYYCGVTPEKSCDEYDYWGQGTQVTVSS | low polyreactivity
21 | QVQLVESGGGLVQAGGSLRLSCAPSGSIFPYYAMGWYRQAPGKERELVAAISGSDGTTYYADSVKGRFTISRDNAKNTVYLQMNSLKPEDTAVYYCAVELPELYYYFAYEYWGQGTQVTVSS | high polyreactivity
22 | QVQLVESGGGLVQAGGSLRLSCAPSGSIFVKNAMGWYRQAPGKERELVAFITIRTATTYYADSVKGRFTISRDNAKNTVYLQMNSLKPEDTAVYYCAAAKRQRGYLQREGNYWGQGTQVTVSS | low polyreactivity

Row | Sequence | polyreactivity (PSR sort gate)
23 | QVQLVESGGGLVQAGGSLRLSCAPSGSILRSYDMGWYRQAPGTERELVAAISSSGGSTYYADSVKGRFTISRDNAKNTVYLQMNSLKQEDTAVYYCAAATSRRFDYWGQGTQVTVSS | high polyreactivity
24 | QVQLVESGGGLVQAGGSLRLSCAPSGSTFARNAMGWYRQAPGKERDLVAAIATSGGRTYYADTVKGRFTISRDIAKNTVYLQMNSLKAEDTAVYYCAAAFSLGMYWGQGTQVTVSS | high polyreactivity
25 | QVQLVESGGGLVQAGGSLRLSCAPSGSTFPRNAMGWYRQAPGKERELVAAISYSGGRTYYADSVKGRFTISRDNAKNTVSLQMNSLKPEDTAVYYCAAQPWFTYYYWGQGTQVTVSS | high polyreactivity
26 | QVQLVESGGGLVQAGGSLRLSCAPSGSTFQYNAMGWYRQAPGKEREFVAAISWRGGNTYYADSVKGRFTISRDNAKNTVYLQMNSLKPEDTAVYYCAAGRQRYAFKYYYWGQGTQVTVSS | high polyreactivity
27 | QVQLVESGGGLVQAGGSLRLSCAPSGSTFYRYSMGWYRHAPGKERELVAAINGGDITNYADSVKGRFTISRDNAKNTVYLQMNSLKPEDTAVYYCAARYTYWGLLRYDYWGQGTQVTVSS | high polyreactivity
28 | QVQLVESGGGLVQAGGSLRLSCAPSGYIFAPNAMGWYRQAPGKERELVAAITFSGGSTSYADSVKGRFTISRDNAKNTVYLQMNSLKPEDTAVYYCAAYWYSLYYLFPYDYWGQGTLVTVSS | low polyreactivity
29 | QVQLVESGGGLVQAGGSLRLSCAPSGYIFPEYVMGWYRQSPGKERELVAVITWDGTSTYADSVKGRFTISRDNAKNTVYLQMNSLIPVDTAVYYCAADTNYYVDTAGYGDGLDSWGQGTQVTVSS | low polyreactivity
30 | QVQLVESGGGLVQAGGSLRLSCAPSRRIFSIYALGSYRQAPGKESELVAAIRWSGGSTYYADSVKGRFTISRDKEKNTVYLQMNSLTPEDTAVYYCNRYYQSYYGWTGPYGYWGQGTQVTVSS | high polyreactivity
31 | QVQLVESGGGLVQAGGSLRLSCAPSRSTFWRYAMGWYRQAPGKERELFARISWSAGSTYYADSVKGRFTISRDNAKNTVYLQMNRLKPEDSAVYYCAAQPYKYSGRYQSKPYLLLYDYWGQGTQVTVSS | high polyreactivity
32 | QVQLVESGGGLVQAGGSLRLSCASSGFIFRHYAMGWYRQAPGKARELVAVINWSGSSTYYADSVKGRFTISRDNAKNTVYLQMNSLKPEDTAVYYCAVRSLRVDKYGYWGQGTQVTVSS | high polyreactivity
33 | QVQLVESGGGLVQAGGSLRLSCASSGFNFVYYSMGRYRQAPGKEREFVAAITERGGSTDYADSVKGRFTISRDHAKNTVYFQMNSLKPEDTAVYYCIARDVTLWDDVYQQDGSGYWGQGTQVTVSS | low polyreactivity
34 | QVQLVESGGGLVQAGGSLRLSCASSGFTFIYYAMGWYRQAPGKERELVAAISGSGSTYYADSVKGRFTISRDNAKNTVYLQMNSLKPEDTAVYYCAADVTGGRKYDYWGQGTQVTVSS | low polyreactivity
35 | QVQLVESGGGLVQAGGSLRLSCASSGFTFRYYTMGLYRQAPGKERELVASITWRGGSTYYADSVKGRFTISRDNAKNTVYLQMNCLKPEDTAVYYCNAERPYQYYPGIYRWYYYWGQGTQVTVSS | low polyreactivity
36 | QVQLVESGGGLVQAGGSLRLSCASSGFTFYTNDMGWDRQAPGKERELVAAITWSGGSTYYADSVKGRFTISRDNAKNTVYFQMNSLKPEDTAVYYCAASIGQVTQRRYGTRYYYWGQGTQVTVSS | high polyreactivity
37 | QVQLVESGGGLVQAGGSLRLSCASSGFTLVGYAMGWYRQAPGKERELVAAISYRGGSTYYADSVKGRFTISRDNAKNTVYLQMNSLKPEDNAVYYCAATYQGSSRSRGYWGQGTQVTVSS | high polyreactivity
38 | QVQLVESGGGLVQAGGSLRLSCASSGIIFAQYTMGWYRQEPGKERELVAAINRNGGSTYYADSVKGRCTISRDNAKHTVYLQMNSLKPEDTAVYYCTKDIERYVRIYDSWGQGTQVTVSS | low polyreactivity
39 | QVQLVESGGGLVQAGGSLRLSCASSGIIYNQNTMGWYRQAPGKERELVAAITFSGGRTSYADSVKGRFTISRDNAKNTFYLQMNSLKPEDSAVYYCNKALWGLYGYWGHGTQVTVSS | low polyreactivity
40 | QVQLVESGGGLVQAGGSLRLSCASSGLTFALYAMGWYRQAPGKEREFVAAITGSGGSTYYADSVKGRFTISRDNAKHTVYLQMNSLKPEYTAVYYCNKLFYRWRIVDKYYYWGQGTQVTVSS | high polyreactivity
41 | QVQLVESGGGLVQAGGSLRLSCASSGLTFGGYTMGLSRQAPGKERELVAAITSGGSTYYADSVKGRFTISRDNAKNTVYLQMNSLKPEDTAVYYCAARVRGWPVSKFGYWGQGTQVTVSS | high polyreactivity
42 | QVQLVESGGGLVQAGGSLRLSCASSGLTSYSAMGWYRQAPGKERELGAAIDGSDGNTYYADSVKGRFTISRDNAMNTVYLQMKSLKPEDTAVYYCNAETVRYWWSWENDYWGQGTQVTVSS | high polyreactivity
43 | QVQLVESGGGLVQAGGSLRLSCASSGNIFDIYAMGWYRQAPGKERELVAAITSSGGSTYYADSVKGRCTISRDNAKNTVYLQMNSLKPEDTAVYYCNAVSLVQKGDYWGQGTQVTVSS | high polyreactivity
